Assay results: patent US20170158755A1 (PROTHENA BIOSCIENCES, published 2017)

Target: T1, human MCAM-Fc fusion protein (human, UniProt P43121 24-559)
T1 construct: Made in house by fusing the extracellular domain of human MCAM to human IgG1, produced in CHO cells; also called hMCAM-Fc; not shown: human IgG1 (Fc part of the fusion)
T1 sequence: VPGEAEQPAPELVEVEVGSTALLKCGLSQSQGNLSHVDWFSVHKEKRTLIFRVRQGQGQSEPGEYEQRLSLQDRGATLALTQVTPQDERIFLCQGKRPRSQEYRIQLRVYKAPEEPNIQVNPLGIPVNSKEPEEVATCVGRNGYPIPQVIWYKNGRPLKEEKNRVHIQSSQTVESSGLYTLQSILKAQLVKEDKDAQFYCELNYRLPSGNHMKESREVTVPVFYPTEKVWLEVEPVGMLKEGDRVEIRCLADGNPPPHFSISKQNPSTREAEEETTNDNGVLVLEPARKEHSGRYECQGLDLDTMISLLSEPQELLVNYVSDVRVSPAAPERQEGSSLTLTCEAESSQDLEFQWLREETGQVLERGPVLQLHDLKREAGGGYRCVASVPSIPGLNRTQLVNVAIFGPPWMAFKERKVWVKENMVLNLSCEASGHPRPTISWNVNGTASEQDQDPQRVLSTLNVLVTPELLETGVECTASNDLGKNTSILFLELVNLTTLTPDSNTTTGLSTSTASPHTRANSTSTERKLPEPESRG
Assay: ELISA, MCAM-Fc captured via goat anti-human Fab
Protocol: To determine the LAMA4 epitope(s)/domain(s) necessary for MCAM binding, recombinant MCAM-Fc (or Fc control) protein was prebound to plates via goat anti-human Fabs overnight. Truncated recombinant variants of the LAMA4 G domain (and Tau control protein) were assayed for their ability to bind MCAM-Fc protein as described in the Materials and Methods and as shown in FIG. 6. The results are presented in arbitrary units (A.U.) on the y-axis. […] Therefore, the LG1-3 modules of the G domain of LAMA4 mediate LAMA4-MCAM interactions.

B1: His-tagged recombinant LAMA4 G-domain variant with LG modules 4-5 (ligand)
chain: RNSHCHLSNSPRAIEHAYQYGGTANSRQEFEHLKGDFGAKSQFSIRLRTRSSHGMIFYVSDQEENDFMTLFLAHGRLVYMFNVGHKKLKIRSQEKYNDGLWHDVIFIRERSSGRLVIDGLRVLEESLPPTEATWKIKGPIYLGGVAPGKAVKNVQINSIYSFSGCLSNLQLNGASITSASQTFSVTPCFEGPMETGTYFSTEGGYVVLDESFNIGLKFEIAFEVRPRSSSGTLVHGHSVNGEYLNVHMKNGQVIVKVNNGIRDFSTSVTPKQSLCDGRWHRITVIRDSNVVQLDVDSEVNHVVGPLNPKPIDHREPVFVGGVPESLLTPRLAPSKPFTGCIRHFVIDGHPVSFSKAALVSGAVSINSCP
notes: also called LAMA4 variant containing the LG modules 4-5; LG4-5
B1: no binding.
